Test results as given in the RNAGym collection of RNA variant scans (doi:10.1093/molbev/msab373).

B1: Azoarcus group I ribozyme (parent)
chain: GUGCCUUGCGCCGGGAAACCACGCAAGGGAUGGUGUCAAAUUCGGCGAAACCUAAGCGCCCGCCCGGGCGUAUGGCAACGCCGAGCCAAGCUUCGGCGCCUGCGCCGAUGAAGGUGUAGAGACUAGACGGCACCCACCUAAGGCAAACGCUAUGGUGAAGGCAUAGUCCAGGGAGUGGCGAAAGUCACACAAACCGG

Variants of: B1
Experiment: reverse-splicing fitness (ratio to wild type); higher = more active; in vitro selection; Mg2+ level not given
Outline: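 An in vitro group I ribozyme library with randomized positions was T7-transcribed and gel-purified. In triplicate, 10 pmol RNA in EPPS pH 7.5 was reacted with 50 pmoles of a 30-nt RNA substrate for 1 h at 37 °C across several added MgCl2 levels (1–48 mM), then stopped with EDTA. Products were reverse transcribed from a substrate-complementary primer, PCR-amplified and sequenced (HiSeq 4000). Fitness is a variant's read proportion after selection over that before, normalised to wild type.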

Variant | reverse-splicing fitness
C82G A111C A120G A145G C169A | 0.0114
C82G A111C A120G A145U C150U C169U U176A | 0.0143
C82G A111C A120G A145U C150U C169U U176G | 0.00531
C82G A111C A120G A145U C150U C169U U176C | 0.0139
C82G A111C A120C C150A C169U U176C | 0.0153
C82G A111C A120C C150A C169U U176G | 0.0085
C82G A111C A120C C150A C169U U176A | 0.015
C82G A111C A120G C150U C169G U176A | 0.0141
C82G A111C A120G C150U C169G U176C | 0.0187
C82G A111C A120G C150U C169G U176G | 0.00537
C82G A111C A120G C150A C169U | 0.00859
C82G A111C A120G C150A C169G | 0.00935
C82G A111C A120G C150A C169A | 0.0116
C82G A111C A120G A145C C150G U176G | 0.00269
C82G A111C A120G A145C C150G U176C | 0.0129
C82G A111C A120G A145C C150G U176A | 0.00787
C82G A111C A120G C150U U176G | 0.00715
C82G A111C A120G C150U U176A | 0.0119
C82G A111C A120G C150U U176C | 0.0217
C82G A111C A120G A145C C150A | 0.00698
C82G A111C A120G A145C C150G | 0.00634

Variant | reverse-splicing fitness
C82G A111C A120G A145C C150U | 0.00925
C82G A111C A120G A145C C150A C169G U176C | 0.0158
C82G A111C A120G A145C C150A C169G U176A | 0.0248
C82G A111C A120G A145C C150A C169G U176G | 0.00529
C82G A111C A120G A145G C150G U176G | 0.00597
C82G A111C A120G A145G C150G U176A | 0.00732
C82G A111C A120G A145G C150G U176C | 0.0113
C82G A111C A120G A145U C150U C169A U176C | 0.0109
C82G A111C A120G A145U C150U C169A U176G | 0.006
C82G A111C A120G A145U C150U C169A U176A | 0.0109
C82G A111C A120C C150A C169A U176A | 0.0164
C82G A111C A120C C150A C169A U176C | 0.019
C82G A111C A120C C150A C169A U176G | 0.00868
C82G A111C A120C C150U C169U U176A | 0.0158
C82G A111C A120C C150U C169U U176C | 0.0142
C82G A111C A120C C150U C169U U176G | 0.00857
C82G A111C A120G A145C C150U U176A | 0.0103
C82G A111C A120G A145C C150U U176C | 0.0125
C82G A111C A120G A145C C150U U176G | 0.00478
C82G A111C A120G A145U C169G U176C | 0.0132
C82G A111C A120G A145U C169G U176G | 0.00458

Variant | reverse-splicing fitness
C82G A111C A120G A145U C169G U176A | 0.0117
C82G A111C A120C A145U C150U C169A | 0.0102
C82G A111C A120C A145U C150U C169U | 0.0116
C82G A111C A120C A145U C150U C169G | 0.00788
C82G A111C A120G A145C C169U U176A | 0.0164
C82G A111C A120G A145C C169U U176G | 0.00406
C82G A111C A120G A145C C169U U176C | 0.0154
C82G A111C A120G A145G C150G C169G | 0.00765
C82G A111C A120G A145G C150G C169U | 0.00859
C82G A111C A120G A145G C150G C169A | 0.009
C82G A111C A120G A145C C150U C169G U176C | 0.0133
C82G A111C A120G A145C C150U C169G U176G | 0.00541
C82G A111C A120G A145C C150U C169G U176A | 0.0216
C82G A111C A120G A145U C150U C169A | 0.0101
C82G A111C A120G A145U C150U C169U | 0.00896
C82G A111C A120G A145U C150U C169G | 0.0113
C82G A111C A120G A145C C169A U176G | 0.00477
C82G A111C A120G A145C C169A U176A | 0.0138
C82G A111C A120G A145C C169A U176C | 0.00939
C82G A111C A120G A145U C150A C169A U176C | 0.0105
C82G A111C A120G A145U C150A C169A U176G | 0.00581

Variant | reverse-splicing fitness
C82G A111C A120G A145U C150A C169A U176A | 0.0128
C82G A111C A120C C169U U176C | 0.0163
C82G A111C A120C C169U U176G | 0.00655
C82G A111C A120C C169U U176A | 0.0183
C82G A111C A120G | 0.0185
C82G A111C A120C A145U C150U C169G U176G | 0.0072
C82G A111C A120C A145U C150U C169G U176A | 0.0133
C82G A111C A120C A145U C150U C169G U176C | 0.0162
C82G A111C A120C C169G U176A | 0.0161
C82G A111C A120C C169G U176C | 0.0206
C82G A111C A120C C169G U176G | 0.00714
C82G A111C A120G C150A U176C | 0.0193
C82G A111C A120G C150A U176A | 0.014
C82G A111C A120G C150A U176G | 0.0081
C82G A111C A120G A145G | 0.014
C82G A111C A120G A145C | 0.013
C82G A111C A120G A145U | 0.0164
C82G A111C A120G A145C C169G U176A | 0.0233
C82G A111C A120G A145C C169G U176G | 0.00429
C82G A111C A120G A145C C169G U176C | 0.0171
C82G A111C A120G C150A C169G U176G | 0.00569
